Results: the domain aggregation screens of Martell et al. (2025)

Experiment: soluble fraction after stress (log2 fold change); higher = more stays soluble; pooled small domains, quantitative proteomics
Conditions: stress: 50 degC
How it was run: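 Each library was heated to 50°C as a stress step. The libraries, made up of small protein domains, were pooled and analysed at high throughput by quantitative proteomics. The reported value is the base-two logarithm of the fold change in each protein's soluble amount after stress, taken as a measure of aggregation propensity. The higher the value, the more protein stays in solution.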

HMSVISVETAKSKALAHAGLTASKVTFIENKLEWDDGRQVYDIEFYTSDYKEYDYTIDAVSGQVLEFDY
soluble fraction (log2): -1.13

HMFRSTLEELKHQISGFLKANQSQEFTAQNLADGLRMTSIAEYKRVVNAMDALVRDGELTFDAGKYQYNPN
soluble fraction (log2): -0.279

HMGGLENNLKQARNRVGLTQSELARQAGISRQAYSSLESGAANPSTEVALRLAQALSERVESLFYLPE
soluble fraction (log2): -0.0819

HMIKRDLAFSEFIAEVKAGQVREVTIKGNSISGNLNDGREFNTYAPNDPNLVKTLTDQGVLIRAIPLE
soluble fraction (log2): -0.0273

HMRENAARNRNVNLDIGETLRVDAWSPERRARVQYRGAAWDVELAPNAPATVGEFRIVEVRGNVLVVTP
soluble fraction (log2): 0.0231

HMGAQINSPISGTILKYLVKNGDKITKDQPLVNIESMKMENTIKSDKEGIVNNINFKIGDSVNTADTLLTL
soluble fraction (log2): 0.0243

HMTSDADSLRDKTGYVAEQVTSKGGKVNLYDGGFDSLYSARSTGETISTGTEIRVVDPGGGNMLVVEPV
soluble fraction (log2): 0.367

HMSFPQVELNTNKGRIVLELNSEKAPKTVANFLEYVRDGFYDGVIFHRVIDGFMIQGGGFDENFKEKA
soluble fraction (log2): -0.229

HMQIIEVPYSEFLKKLESGQISEVSRDSYQIVFTDRSQPPIIYKTGLMEDPGLVDKMQEAGVTFTSP
soluble fraction (log2): 0.12

HMATFTPYLVRITASVLNIRKGPGTTYAVTGQIKDRGVYTIVEQKGNWGRLKSGAGWISLSYTKK
soluble fraction (log2): -3.12

HMIMQTTSDRINQRMRDLGLQHKDLVAATGASKGTVTNWINGVNNPTGKRLVQLAQALKTTSSWLLTGN
soluble fraction (log2): -0.12

HMPLDYQELRNISPQAARQAILQILKANKGNVSQTARMLGITRKTVYKAMAKREAGNLDDGSRAPK
soluble fraction (log2): -0.554

HMPLNAFDVAGYRLGYGGGYFDRTLAALSPRPLAVGVGFEINRLESIRPEAHDQRLDWIVTENGAFRPA
soluble fraction (log2): -0.867

HMVQIIQLQGTDKRLYELVAPLVMNPEILKQNYNYPFRTSEDFVWFVAVDKKKVIGFIPVEEKKKEYVI
soluble fraction (log2): -0.0678

HMNPNSIDEKLKLLSNREKEVAILVLKKLSYFEISEQLNITIRTVKAHTKNIYEKFNVSNRLAFLLLFN
soluble fraction (log2): -0.225

HMFNGDPTTRESILASARAEIDQYGIIGLRLSAVAEKAQVSVPLIYKYFEDRDGLLAVVLGDW
soluble fraction (log2): -1.27

HMKITTKNYFKAIAEVGVENLPAALKKSHDLIEERTSKGADWSVYEHDAEVRRVFDLTFEKLFEFIDQ
soluble fraction (log2): -0.363

HMAKMPSIIIMKDGVIRTSELEQIERDENWLNEEMKKQHIDNPEDVFLAEFWDGKVNFILQDGKIK
soluble fraction (log2): 0.0716

HMTLAAATESREYLADLARRLDAADHGDKTRIKAEAAGLLGWSMATLHARLARDVGWTSGRK
soluble fraction (log2): -0.0944

HMWTKKELWNAIAKLPKKQRTVVMMRIAQNLPYKDISEITGMSIGSAKVNYHHAVNSLKQWLS
soluble fraction (log2): -0.59

HMTGESIPFSKFLSEVDSGRVINVEIQGNNISGLLSDGNKFKTYSPNYPNLVEILSEKEVSIVATPLE
soluble fraction (log2): 0.0525

HMLSVRNRMSDVLKSLDDGEFHRFESLFNLEEGRLGVVVTFLAMLELAKEMLVEIVQNESLGPIYLKSR
soluble fraction (log2): -0.0774

HMAEPAEDLLSLEGMDKGLAYQLASNGVVTREDLAELATDDLLEIREMDAEQAAALIMKAREHWFEAEQQ
soluble fraction (log2): 0.211

HMQDYISAEEAKSAALSASQVDSAGAAFSAAELGEKNGIPYYEVAFTADGLEYRYAIDAQTGTVIESSSSG
soluble fraction (log2): 0.0366

HMDIFSSFVAIKNANVRELPTAKSAQVATLSKGSEVTALGKVKGKNWYLVARDGKELGYVFGSLIAEAET
soluble fraction (log2): -1.29

HMIESVMVGIKELLGDTIDQKYEKYIRLGGIPSDEVDEFNSVFSAYEKVNGNHNGKKKYDYVMNNLPIIPV
soluble fraction (log2): -0.26

HMRLSDSEFESIENAIKEKLENSALTADVLVKELSFDEDKIWKVIRWLEDAEKISEDEAGTLLWKPR
soluble fraction (log2): -0.22

HMGLQDLFLNSLRKSKTPVTMFLVKGVKLQGVVTWFDNFSVLLRRDGMSQLVYKHSISTIMP
soluble fraction (log2): -0.0722

HMKSIRIPFILTEGPNSQKITIDIDSDEEFRIGDVFDEDDKLWSINQILISGDRKAKMAIASEVTSISALR
soluble fraction (log2): -2.39

HMVAEKSKIEMAIDSINKLAKELADSGVAKKTISDIIKSVSGSANYNKITDFEVATDVYKELVALKNKEDT
soluble fraction (log2): 0.384

HMREIEVNYAAGDSVRVIDGPLAGFIGVVSSVEPDKNKVNVTVSMFGRETPVELELDQVETLD
soluble fraction (log2): 0.159

HMDWFDELKVSTDDSGRVTAPEESEFMFQTSNEKIFAGGDMVRGSDLVVTAIWEGRQAAEGIMDYLD
soluble fraction (log2): -0.16

HMHKLTIEEALNYKTPANAGGPYSGKPFRDIYDQRGKAAVISFAKYYLSKATPEDPMVEVYRTLLDGAMEL
soluble fraction (log2): -0.875

HMNDPFVILGVSKDASQSEILEAYKQKRAYYQERVFDEGDEGAQAARMLTQLDDAYQQAMELSHES
soluble fraction (log2): -0.151

HMEHPNNTELTQKLELGTELMQYGDYNYALKVFNNVIDSDPEWSEAWNKRATVYFLMSQFTDSLSDIDRV
soluble fraction (log2): 0.32

HMEEQIEVPVQINGKVRSKLTVAPETDEKQIEALALADPKVQQQLEGKRVLKVIVAQKRLVNIVA
soluble fraction (log2): -0.0336

HMYPDNEQTLSKLAFEFFKKRNIPISQSNINQIVTKSLGDRENLYNELLKIENFSTSGKKLTDNVIKKLIN
soluble fraction (log2): 0.00831

HMPDIFDRGTAHITDAASGVAITFTRTFRIPPEVTMTHKGGTVVAIARLVGSITTGGFTAVLENT
soluble fraction (log2): -0.264

HMEVVVPEDLDAALQQASRAQSFFSSLSYTHKKEYVAWINEAKRAETRAMRIQKTITMLESGQRGH
soluble fraction (log2): -1.14

HMGMSQQKQSSTVRIIMQDISDANEGLMKMSQIIDAALAEGISETIVRNAISNLHRGGTIYESQTGTYQW
soluble fraction (log2): -0.359

HMFKEVPVPDVKGMTLEEAKLALEKEGFILGKTEEAESTEVAAGKIISQNLEAGKIAKQGTSVNLVVSKGK
soluble fraction (log2): 0.24

HMKNEQESIAQKLYEAALKNDFVTIQEIQSGGYRLRNDDLTHMRESGVQSNTLIAIQKIFGL
soluble fraction (log2): 0.398

HMHPTEKNLTSLLADGSFYMNQNKLETAYDTFTKTIELDPSWAEAWNKRATVLYLMGKYELSQADIDQV
soluble fraction (log2): -0.0645

HMAEMLQDVLNMLSAKDREILVRYYYYYESVKQVAAEMQMSESAVKMRMSRARKKMQQELIDKG
soluble fraction (log2): -3.59

HMKKIDVEVVRSQLIAWMADNGKSQAEVSKSMGISASALSMFIKGTYTGDNEQIGRKAAALMDLVHRQSA
soluble fraction (log2): 0.0121

HMNKSGVVLIRVTVDASGRVTSAAYEPKGSTTSDVELVAEARKAALRTRFTESRTVIEGGVITYIFKL
soluble fraction (log2): -2.28

HMQRYFLEEAYQPSEKFELSAEAFHHIVHVMRMKPKDRVYLAFSDQQVIIAEITEITEEKVYLTEIEKEE
soluble fraction (log2): -0.0978

HMDKENVLQLQKDLLRLSVNALEKRYYQFSDILLLKYILPLVPKEISIDDQSRLRSLLSGIN
soluble fraction (log2): -0.238

HMAVKNAQIDVQQFFYSKSGEVDFGRKIKAIQSHFTPERLQSFTAAVPPSQWVSQLQVMWDSL
soluble fraction (log2): -1.39

HMTSAHEKAFDLFDGGKLSEKALLIAVGAERSGFELAGDLRLRTLTAFEDGRLSEDAMIKLL
soluble fraction (log2): -0.385

HMSLLLTPREASVWASEYLGKKVTSNNIIYLLNYGKIANHSTDLKENLIDKNELKIYYDSTIKSQKH
soluble fraction (log2): -0.216

HMEPQSRTAYRLIEAMIVTHELPPGSRISEASLSAKLGIGRTPIREALQRLSFEGTVKIVPRSGAFVSEI
soluble fraction (log2): -2.76

HMSHGYVEMQAKDDQVLLAALKNHPWFEKVSIDEETGLTKAILTQPIEAEELNSMLFEKGIVLSHLVKRK
soluble fraction (log2): 0.234

HMDLVESYDLKIIYTSELINLLIDSSRLEEALNLFKDLKDEIDDVENLGFSAKNNLDYMESKLLHLG
soluble fraction (log2): -1.83

HMLPKNITNTIDHWIQKFPQGKQRSAIIAALHAVQHHNKGFLTNDLLNQVADYIDVPKMNVYEVATFYSM
soluble fraction (log2): 0.0843

HMRAGALTTLTERERNVFDLVVTGHSNPEIARQLSIADVTVKTHVGHILSKLGVRDRVHLVIWAHRQGLAD
soluble fraction (log2): -2.61

HMINIDESIDESLSEDDAVLDLLERASASFTKAQEALLEGDLGRYQTLIEQADRLVAKALELLDEKN
soluble fraction (log2): -0.457

HMTELKKTAVDTWVKDLGTEQALAKLDTLAVVKLRRLAREYKAFGIAGRAISKADKGMLLAEFRAYYEN
soluble fraction (log2): -1.86

HMKFINISIDKSGNLFINKKSIKFQDLKYNVVNLVDESKNLVVLNADENISHGYVISVLDVLRSIDGLKLA
soluble fraction (log2): -2.18

HMHEHWDGSGFPKHLRGANIPLGARVIAVADTYDSITSSRAYRAGSTHEAAEREMRRVSGTQLDPE
soluble fraction (log2): 0.137

HMTEEEEFEKGFEILVNLSHFNRFSVYKEDEYVIVRIADYDFNEYFKVKKSDVGRIAEFLNENIT
soluble fraction (log2): -2.4

HMFDTVFIVRKTSDKPLDGLRTYLNSIGDSLVIGEDDEAFKVHVHTNHPGKVLEEAITYGALQTVKIENMR
soluble fraction (log2): -0.966

HMGTMKGFVDGSSVHLRSGPSLSESIRAKVVKGQTLYITERRGDWYRATVHGGGEGWIHTSLVKLAG
soluble fraction (log2): 0.178

HMGDWEDFWEKEARRRKLSLDYQVVRSLSRWSREYDWGEEDVEQFLSQFPEGETVKMEDVELYFE
soluble fraction (log2): -1.12

HMIYQEGMQVKYQGKEYVISEIQDYKTYKTIKLDDNEGYLNGFITGSEILSFRNESELDLEI
soluble fraction (log2): -0.314

HMPKDLEKRAAILAAAKHLFPVHGFEGTSMDAIAALANVSKLTVYSHFKDKESLFTEAIREK
soluble fraction (log2): -0.087

HMIPSLTITVNEHSRQITRGTSLYTLRDALYPDADVLVVNGHPADSDRHLEEGDAVVLIRRGA
soluble fraction (log2): -0.275

HMEIEIPEELQNKFAEIPELKTAFESLTPGRQRAYVLYFSQPKQSKTREARIEKYIPHILDGKGMN
soluble fraction (log2): 0.111

HMGGTTLIAKQATVTGDIQFSSNLDIEGRVVGAISVEPGKEAMLHVVEGGSVEGEIRVPSAVINGKVTGDI
soluble fraction (log2): 0.101

HMELPPLQPGQPIDGRVEQQIRAGYYVVSVRGRGYEFQLPESARPGDLLRMVYLNDHPRLTFALLRIDNAN
soluble fraction (log2): -0.98

HMQQQLLHIVFGGELKDVTGIEFEDLSKMDFVGAFSNYKDAYDAWKSAAQRTVDHAEMRYFILHAHKLL
soluble fraction (log2): -5.48

HMGTVVKRNALVHAWTEFNGGRASTKLLALGPGKVGEWIELENPQSGRKLRGEVQVDGSVRLG
soluble fraction (log2): 0.11

HMSDSGLPLPRFVSLGDDRVNARAGPGFRFPINWVYLRKNFPVEVIDEFGHWRRIKDIDGIEGWIHLSML
soluble fraction (log2): -0.775

HMETYEFNITDKEQTGMRVDKLLPELNSDWSRNQIQDWIKAGLVVANDKVVKSNYKVKLNDHIVVTEKEV
soluble fraction (log2): 0.26

HMAVRTELLALPAGWHGDASRLSTALAALQGVREAVVIASEGVAYLKVHGHDWDRDGARELLQN
soluble fraction (log2): 0.00676
